In assay [1] the target is T1, soluble form of the extracellular domain of human CD40 (Creative BioMart) (human, UniProt P25942 21-193).
T1 construct: Bought
Nature of the assay: SPR. (Surface plasmon resonance follows binding to a sensor surface in real time, without labels.)

Assay [2] has as its target T2, human mesothelin (human, UniProt Q13421 296-580, limits assumed).
T2 construct: also called Human MSLN
Kind of assay: SPR.

For assay [3], the target named is T3, soluble form of the extracellular domain of cynomolgus (cyno) CD40 (Creative BioMart) (cynomolgus, UniProt G7PG38 21-193).
T3 construct: extracellular domain; also called Cynomolgus CD40
Kind of assay: SPR.

The target of assay [4] is T4, human 4-1BB (human, UniProt Q07011 24-186).
T4 construct: SPR (Biacore) analyte; also called hu4-1BB
Kind of assay: SPR.

Assay [5] deals with T5, mouse 4-1BB (mouse, UniProt P20334 24-187).
T5 construct: also called mu4-1BB; murine 4-1BB
T5 sequence (looked up): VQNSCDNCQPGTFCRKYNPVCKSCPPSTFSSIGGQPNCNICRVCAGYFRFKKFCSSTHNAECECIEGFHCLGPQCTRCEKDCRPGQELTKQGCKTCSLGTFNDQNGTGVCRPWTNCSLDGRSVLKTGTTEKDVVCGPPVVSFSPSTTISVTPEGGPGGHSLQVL
Kind of assay: SPR.

Assay [6] has as its target T6, cynomolgus 4-1BB (cynomolgus, UniProt A9YYE7 24-186).
T6 sequence: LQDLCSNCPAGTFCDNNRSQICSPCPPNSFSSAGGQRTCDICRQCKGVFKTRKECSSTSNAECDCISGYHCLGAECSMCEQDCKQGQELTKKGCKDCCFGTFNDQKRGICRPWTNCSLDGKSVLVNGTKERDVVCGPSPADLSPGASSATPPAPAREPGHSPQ
Nature of the assay: SPR.

The target of assay [7] is T5, mouse 4-1BB. Kind of assay: SPR (Biacore).
Assay [8] has as its target T4, human 4-1BB. Kind of assay: SPR. This is another data set of the same source.
The target in assay [9] is T5, mouse 4-1BB. Kind of assay: SPR. The source holds these as a separate data set.

In general, Kd refers to the constant that tells how readily two partners part at equilibrium. The low end stands for a tighter complex, the high end for a looser complex. As usually defined, the koff is a measure of how fast the partners let go of each other. The term kon denotes the second-order rate constant of association.

Like-named read-outs stand apart in the source and are kept apart here.

T2 sequence (Q13421 other isoform, or with tags, fused parts or gaps limits assumed): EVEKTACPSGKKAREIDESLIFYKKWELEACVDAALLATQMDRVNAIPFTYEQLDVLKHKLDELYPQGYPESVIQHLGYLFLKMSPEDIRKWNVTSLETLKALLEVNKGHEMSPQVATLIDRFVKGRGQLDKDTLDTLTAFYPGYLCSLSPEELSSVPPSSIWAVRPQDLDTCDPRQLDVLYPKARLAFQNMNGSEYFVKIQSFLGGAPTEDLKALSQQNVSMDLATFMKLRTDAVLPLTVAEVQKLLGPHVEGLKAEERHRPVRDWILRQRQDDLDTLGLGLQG
T1 sequence (P25942 21-193 limits assumed): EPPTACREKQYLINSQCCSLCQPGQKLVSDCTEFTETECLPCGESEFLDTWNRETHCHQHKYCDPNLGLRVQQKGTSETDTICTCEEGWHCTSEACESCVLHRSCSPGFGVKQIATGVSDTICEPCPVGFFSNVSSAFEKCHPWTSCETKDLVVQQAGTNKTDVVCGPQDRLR

B1: V5-2 (bispecific antibody)
chain 1: EVQLQESGPGLVKPSETLSLTCTVSGYSITSNYYWNWIRQPPGKGLEWMGYIRYDGSNNYNPSLKNRVTISRDTSKNQFSLKLSSVTAADTAVYYCARLDYWGQGTTVTVSS
chain 2: DAVMTQTPLSLSVTPGQPASISCRSSQSLENTNGNTFLNWYLQKPGQSPQLLIYRVSNRFSGVPDRFSGSGSGTDFTLKISRVEAEDVGVYYCLQVTHVPFTFGQGTKLEIK
chain 3: EVQLVQSGAEVKKPGASVKVSCKASGDTFKRYYVHWVRQAPGQGLEWMGIINPSGVSTTYAQKFQGRVTMTRDTSTSTVYMELSSLRSEDTAVYYCAEVRGSGFNYFGMDVWGQGTLVTVSS
chain 4: SYELTQPPSVSVSPGQTASITCSGDKLGDKYASWYQQKPGQSPVLVIYQDNRRPSGIPERFSGSNSGNTATLTISGTQAMDEADYYCQAWDSDTYVFGTGTKVTVL
In assay [1], B1 gave a Kd of 150 nM, a koff of 0.25 s⁻¹ and an on-rate constant (kon) of 1.7e+06 M⁻¹ s⁻¹. Moreover, in assay [2], the Kd stood at 2 nM, the koff worked out at 2.8e-05 s⁻¹ and the kon was 14000 M⁻¹ s⁻¹. For the same molecule, in [3], the Kd was determined as 120 nM, the koff is 0.11 s⁻¹ and the kon came out at 940000 M⁻¹ s⁻¹.

B2: V6-8 (bispecific antibody)
chain 1: B1 chain 1
chain 2: DAQMTQSPSSLSASVGDRVTITCRSSQSLENTNGNTFLNWFQQKPGKAPKLLIYRVSNRFSGVPSRFSGSGSGTDFTLTISSLQPEDFATYYCLQVTHVPFTFGQGTKLEIK
chain 3: EVQLLESGGGLVQPGGSLRLSCAASGFTFSSYAMSWVRQAPGKGLEWVSAISGGGGRTYYADSVKGRFTISRDNSKNTLYLQMNSLRAEDTAVYYCAREEMAFRAYRFDIWGQGTLVTVSS
chain 4: not shown
B2: in assay [1], the Kd amounted to 14 nM, the koff was determined as 0.014 s⁻¹ and the kon was determined as 970000 M⁻¹ s⁻¹. Besides, in [2], the Kd worked out at 11 nM, the koff amounted to 0.0015 s⁻¹ and the kon was 130000 M⁻¹ s⁻¹. In assay [3], this molecule gave a Kd of 11 nM, a koff of 0.013 s⁻¹ and an association rate constant (kon) of 1.3e+06 M⁻¹ s⁻¹.

B3: TABBY107-rIgG1 (antibody, V domains shown)
VH: QVKLVQSGAALVKPGASVKMSCKASDYTFNDYWVSWVKQRHGESLEWIGEIYPNSGATNFNGKFRGKATLTVDNPTSTAYMELSRLTSEDSAIYYCTREYTRDWFAYWGQGTLVTVSS
VL: DVVLTQTPSILSATIGQSVSISCRSSQSLLDSDGNTYLYWFLQRPGQSPQRLIYLVSNLGSGVPNRFSGSGSGTDFTLKISGVEAEDLGIYYCMQPTHAPYTFGAGTKLELK
notes: rat IgG1, kappa
As to B3, the Kd in [4] amounted to 0.32 nM; in [5], 6.7 nM; in assay [6], 0.36 nM; in assay [7], 6.7 nM. Besides, the koff in assay [4] was found to be 0.00014 s⁻¹; in assay [5], 0.0016 s⁻¹; in [6], 0.00013 s⁻¹. Further, the kon turned out to be 450000 M⁻¹ s⁻¹ in [4], 240000 M⁻¹ s⁻¹ in assay [5] and 350000 M⁻¹ s⁻¹ in [6].

B4: TABBY101-rIgG1 (antibody, V domains shown)
VH: QIQLVQSGPELKKPGESVKISCKASGYTFTDFAIHWVKQAPGKGLKWMGWINTYTGKPTYADDFKGRFVFSLEASASTANLQISNLKNEDTATYFCSRGAPRPTNWGQGTLVTVSS
VL: DIQMTQSPASLSASLGETVSIECLASEDIYNNLAWYQQKPGKSPQLLIYYESRLQDGVPTRFSGSGSGTQYSLKINSLESEDAATYFCLQDSEYPYTFGAGTKLELK
notes: rat IgG1, kappa
Take B4: the Kd in [7] is 0.82 nM.

B5: hu106-1 (antibody, V domains shown)
VH: EVQLVQSGAEVKKPGSSVKVSCKASGYTFTSYYIYWVRQAPGQGLEWIGNIWPGNGGTFYGEKFMGRATFTADTSTSTAYMELSSLRSEDTAVYYCARRPDYSGDDYFDYWGQGTLVTVSS
VL: NVMLTQPHSVSESPGKTVTISCKLNSGNIGSYYVHWYQQRPGSSPTTMIYRDDKRPDGVPDRFSGSIDSSSNSASLTISGLKTEDEADYYCHSYDSTITPVFGGGTKLTVL
notes: human IgG1 constant regions with L234A and L235A
In assay [8], B5 gave a Kd of 130 nM, a koff of 0.074 s⁻¹ and a kon of 570000 M⁻¹ s⁻¹. Moreover, in [9], the dissociation constant (Kd) was 17 nM, the koff stood at 0.036 s⁻¹ and the kon amounted to 2.2e+06 M⁻¹ s⁻¹.

B6: TABBY103-rIgG1 (antibody, V domains shown)
VH: QVQLQQSGAELVKPGSSVKISCKASDYTFTSNFLHWIKQQPGNGLEWIGWINPGDGDTYYNQKFNGKATLTADKSSTTAYMQLSSLTSEDSAVYFCAGGNYYAAHYPPGPWYFDFWGPGTMVTVSS
VL: DTVLTQSPALAVSLGQRVTISCRASKSVSIYMHWYQQKSGQQPKFLIYTASNLESGVPSRFSGSGSGTDFTLTIDPVEADDIANYYCQQSNELPFTFGSGTKLEIK
notes: rat IgG1, kappa
As for B6, in assay [7], the Kd was found to be 0.17 nM. That is a sub-nanomolar value.

B7: TABBY102-rIgG1 (antibody, V domains shown)
VH: QVQLQQSGAELAKPGSSVKISCKASGYTLTSYYLNWIKQTTGQGLEYIGYIDTGSGGSHYNEKFKGKATLTVDKSSSTAFMQLSSLTPVDSAVYYCARGGYYDGFFDYWGQGVMVTVSS
VL: DIQMTQSPASLSASLGETVSIECLASEGISNDLAWYQQKSGKSPQFLIYAASRLQDGVPSRFSGSGSGTRYSLKISGMQPEDEADYFCQQSYKYPPTFGSGTKLEIK
notes: rat IgG1, kappa
Turning to B7, the Kd in assay [7] was found to be 0.84 nM.

B8: TABBY106-rIgG1 (antibody, V domains shown)
VH: QVQLQQSGAELAKPGTSVKLSCKASGYTFTSYYIYWVKQRPGQGLEWIGNIWPGNGGTFYGEKFMGKATFTADTSSSTAYMLLGSLTPEDSAYYFCARRPDYSGDDYFDYWGQGVLVTVSS
VL: QVVLTQPKSVSTSLKSTVKLSCKLNSGNIGSYYVHWYQQHAGRSPTTMIYRDDKRPDGVPDRFSGSIDSSSNSAFLTINNVQTEDDAIYFCHSYDSTITPVFGGGTKLTVL
notes: rat IgG1, lambda
For B8, the Kd in assay [4] turned out to be 12 nM; in assay [5], 1.6 nM; in [6], 18 nM; in [7], 1.6 nM. For the same molecule, the koff in assay [4] stood at 0.026 s⁻¹; in assay [5] it was 0.013 s⁻¹; in assay [6] it was 0.022 s⁻¹. In addition, the kon in assay [4] came to 2.2e+06 M⁻¹ s⁻¹; in [5] it was 8.1e+06 M⁻¹ s⁻¹; in assay [6], 1.2e+06 M⁻¹ s⁻¹.

B9: TABBY105-rIgG2a (antibody, V domains shown)
VH: EVQLVESGGGLVQPGRSMKLSCAASGFTFNNYDMAWVCQAPKRGLEWVATISYDGSTTYYRDSVKGRFTFSRDNAKSTLYLQMDSLRSEDTATYYCARVGAGDFDYWGQGVMVTVSS
VL: DIRMTQSPVSLSTSLGETVNIECLASEDIYSDLAWYQQKPGKSPQLLIYSTNTLQNGVPSRFSGSGSGTQYSLKINSLQSEDVATYFCQQNNNYPYTFGAGTKLELK
notes: rat IgG2a, kappa
On to B9, for which the Kd in assay [7] worked out at 15 nM.

B10: TABBY108-rIgG1 (antibody, V domains shown)
VH: EIQLQESGPGLVRPSQSLSLACSVTGYTITSAYDWSWIRKFPGNKMEWMGYIAYIGFTNSNPSLKSRISITRDTSKNQFFLQLKSVTTEDTATYYCARWSSYIPRYFDFWGPGTMVTVSS
VL: QAVLTQPNSVSTSLGSTVKLSCTITSGNIEDNFVHWYQHYEGRSPTTMIHNDDKRPDGVPDRFSGSIDSSSNSAFLTINNVEIEDEAIYFCHSYVSSINIFGGGTKLTVL
notes: rat IgG1
As for B10, in assay [7], binding was characterised by a dissociation constant (Kd) of 0.36 nM.

B11: TABBY104-rIgG1 (antibody, V domains shown)
VH: QVTLKESGPGILQPSQTLSLTCTFSGFSLSTDGLGVTWIRQPSGKGLEWLANIWWDDDKDYNPSLKNRLTISKDTSNPQAFLKITNVDTADTATYYCARIVPNSGHEDYWGQGVMVIVSS
VL: DIQMTQSPSFLSASVGDRVTINCKASQNINRYLNWYQQKLGEAPKLLMYNTNSMQTGIPSRFSGSGSGTDFTLTISSLQPEDVATYFCLQHNSWPRTFGGGTKLELK
notes: rat IgG1, kappa
In the case of B11, in assay [7], the Kd was found to be 0.14 nM.

The record behind these values is US20180194862A1 (AbbVie / Abbott, published 2018).
